T1: PUF4 RNA-binding domain (Saccharomyces cerevisiae, UniProt P25339 537-888)
T1 sequence: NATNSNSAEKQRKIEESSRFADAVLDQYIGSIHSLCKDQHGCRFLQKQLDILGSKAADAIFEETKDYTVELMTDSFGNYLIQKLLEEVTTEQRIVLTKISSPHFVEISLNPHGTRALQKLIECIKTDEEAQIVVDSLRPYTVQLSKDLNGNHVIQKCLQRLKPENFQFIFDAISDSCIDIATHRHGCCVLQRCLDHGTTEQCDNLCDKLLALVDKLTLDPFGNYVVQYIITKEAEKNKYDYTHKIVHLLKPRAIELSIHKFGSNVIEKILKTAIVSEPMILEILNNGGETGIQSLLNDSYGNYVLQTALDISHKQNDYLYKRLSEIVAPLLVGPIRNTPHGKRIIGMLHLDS


Target: T1, PUF4 RNA-binding domain
Assay: Mg; RNA-MaP; 20 mM Na-HEPES pH 7.4, 30 mM KOAc, 0.75 mM MgCl2, 0.1% Tween-20, 5% glycerol, 0.1 mg/mL BSA, 2 mM DTT; 25 C; 0.0125-409.6 nM protein
Conditions: tags: N-His6-TEV cleaved; C-SNAP kept, Cy3B-labelled; label: tethered on chip by stalled RNA polymerase

Row | Binder | Kd
1 | UCUCUUUGUACUACCUCUCUU (ssRNA) [Ic_S1_P4E.1_K4.1_C4.1_H4.1_A4.1_[T5C]_[A6T]_[T7A]_F4.1_[T8C]_[A9C]_T4.1] | 478 nM
2 | UCUCUUUGUACUGCCUCUCUU (ssRNA) [Ic_S1_P4E.1_K4.1_C4.1_H4.1_A4.1_[T5C]_[A6T]_[T7G]_F4.1_[T8C]_[A9C]_T4.1] | 684 nM
3 | UCUCUUUGUACUCAGUCUCUU (ssRNA) [Ic_S1_P4E.1_K4.1_C4.1_H4.1_A4.1_[T5C]_[A6T]_[T7C]_F4.1_[T8A]_[A9G]_T4.1] | 738 nM
4 | UCUCUUUGUACCAAGUCUCUU (ssRNA) [Ic_S1_P4E.1_K4.1_C4.1_H4.1_A4.1_[T5C]_[A6C]_[T7A]_F4.1_[T8A]_[A9G]_T4.1] | 755 nM
5 | UCUCUUUGUACAGCGUCUCUU (ssRNA) [Ic_S1_P4E.1_K4.1_C4.1_H4.1_A4.1_[T5C]_[T7G]_F4.1_[T8C]_[A9G]_T4.1] | 112 nM
6 | UCUCUUUGUACUAACUCUCUU (ssRNA) [Ic_S1_P4E.1_K4.1_C4.1_H4.1_A4.1_[T5C]_[A6T]_[T7A]_F4.1_[T8A]_[A9C]_T4.1] | 330 nM
7 | UCUCUUUGUACUUAGUCUCUU (ssRNA) [Ic_S1_P4E.1_K4.1_C4.1_H4.1_A4.1_[T5C]_[A6T]_F4.1_[T8A]_[A9G]_T4.1] | 43 nM
8 | UCUCUUUGUACUUCGUCUCUU (ssRNA) [Ic_S1_P4E.1_K4.1_C4.1_H4.1_A4.1_[T5C]_[A6T]_F4.1_[T8C]_[A9G]_T4.1] | 424 nM
9 | UCUCUUUGUACUCACUCUCUU (ssRNA) [Ic_S1_P4E.1_K4.1_C4.1_H4.1_A4.1_[T5C]_[A6T]_[T7C]_F4.1_[T8A]_[A9C]_T4.1] | 1060 nM
10 | UCUCUUCGUAUAUUUCUCUU (ssRNA) [Ib_S1_P3E.1_K3.1_C3.1_H3.1_[T1C]_A3.1_F3.1_[A8T]_T3.1] | 830 nM
11 | UCUCUUUGUACCAAAUCUCUU (ssRNA) [Ic_S1_P4E.1_K4.1_C4.1_H4.1_A4.1_[T5C]_[A6C]_[T7A]_F4.1_[T8A]_T4.1] | 68 nM
12 | UCUCUUAGUAUAUUUCUCUU (ssRNA) [Ib_S1_P3E.1_K3.1_C3.1_H3.1_[T1A]_A3.1_F3.1_[A8T]_T3.1] | 1220 nM
13 | UCUCUUUGUACUCCUUCUCUU (ssRNA) [Ic_S1_P4E.1_K4.1_C4.1_H4.1_A4.1_[T5C]_[A6T]_[T7C]_F4.1_[T8C]_[A9T]_T4.1] | 407 nM
14 | UCUCUUUGUACUGUGUCUCUU (ssRNA) [Ic_S1_P4E.1_K4.1_C4.1_H4.1_A4.1_[T5C]_[A6T]_[T7G]_F4.1_[A9G]_T4.1] | 50.5 nM
15 | UCUCUUUGUACCUAAUCUCUU (ssRNA) [Ic_S1_P4E.1_K4.1_C4.1_H4.1_A4.1_[T5C]_[A6C]_F4.1_[T8A]_T4.1] | 66.3 nM
16 | UCUCUUGGUAUAUUUCUCUU (ssRNA) [Ib_S1_P3E.1_K3.1_C3.1_H3.1_[T1G]_A3.1_F3.1_[A8T]_T3.1] | 1250 nM
17 | UCUCUUUGUACCAACUCUCUU (ssRNA) [Ic_S1_P4E.1_K4.1_C4.1_H4.1_A4.1_[T5C]_[A6C]_[T7A]_F4.1_[T8A]_[A9C]_T4.1] | 271 nM
18 | UCUCUUUGUAUGUAUCUCUU (ssRNA) [Ic_S1_P3E.1_K3.1_C3.1_H3.1_A3.1_[A6G]_F3.1_T3.1] | 66.5 nM
19 | UCUCUUUGUACUGUAUCUCUU (ssRNA) [Ic_S1_P4E.1_K4.1_C4.1_H4.1_A4.1_[T5C]_[A6T]_[T7G]_F4.1_T4.1] | 5.91 nM
20 | UCUCUUUGUACCAAUUCUCUU (ssRNA) [Ic_S1_P4E.1_K4.1_C4.1_H4.1_A4.1_[T5C]_[A6C]_[T7A]_F4.1_[T8A]_[A9T]_T4.1] | 103 nM

Row | Binder | Kd
21 | UCUCUUUGUACCUGUUCUCUU (ssRNA) [Ic_S1_P4E.1_K4.1_C4.1_H4.1_A4.1_[T5C]_[A6C]_F4.1_[T8G]_[A9T]_T4.1] | 94 nM
22 | UCUCUUUGUACUCAUUCUCUU (ssRNA) [Ic_S1_P4E.1_K4.1_C4.1_H4.1_A4.1_[T5C]_[A6T]_[T7C]_F4.1_[T8A]_[A9T]_T4.1] | 150 nM
23 | UCUCUUUGUACCUCUUCUCUU (ssRNA) [Ic_S1_P4E.1_K4.1_C4.1_H4.1_A4.1_[T5C]_[A6C]_F4.1_[T8C]_[A9T]_T4.1] | 587 nM
24 | UCUCUUAGUAUAUGUCUCUU (ssRNA) [Ib_S1_P3E.1_K3.1_C3.1_H3.1_[T1A]_A3.1_F3.1_[A8G]_T3.1] | > 2300 nM
25 | UCUCUUUGUACCACCUCUCUU (ssRNA) [Ic_S1_P4E.1_K4.1_C4.1_H4.1_A4.1_[T5C]_[A6C]_[T7A]_F4.1_[T8C]_[A9C]_T4.1] | 573 nM
26 | UCUCUUUGUACUCCCUCUCUU (ssRNA) [Ic_S1_P4E.1_K4.1_C4.1_H4.1_A4.1_[T5C]_[A6T]_[T7C]_F4.1_[T8C]_[A9C]_T4.1] | 508 nM
27 | UCUCUUUGUACUGCGUCUCUU (ssRNA) [Ic_S1_P4E.1_K4.1_C4.1_H4.1_A4.1_[T5C]_[A6T]_[T7G]_F4.1_[T8C]_[A9G]_T4.1] | 1280 nM
28 | UCUCUUUGUACAGCAUCUCUU (ssRNA) [Ic_S1_P4E.1_K4.1_C4.1_H4.1_A4.1_[T5C]_[T7G]_F4.1_[T8C]_T4.1] | 38.5 nM
29 | UCUCUUUGUACCUACUCUCUU (ssRNA) [Ic_S1_P4E.1_K4.1_C4.1_H4.1_A4.1_[T5C]_[A6C]_F4.1_[T8A]_[A9C]_T4.1] | 56.6 nM
30 | UCUCUUUGUACUAUAUCUCUU (ssRNA) [Ic_S1_P4E.1_K4.1_C4.1_H4.1_A4.1_[T5C]_[A6T]_[T7A]_F4.1_T4.1] | 1.28 nM
31 | UCUCUUUGUACUUUUUCUCUU (ssRNA) [Ic_S1_P4E.1_K4.1_C4.1_H4.1_A4.1_[T5C]_[A6T]_F4.1_[A9T]_T4.1] | 19.2 nM
32 | UCUCUUUGUACCAUUUCUCUU (ssRNA) [Ic_S1_P4E.1_K4.1_C4.1_H4.1_A4.1_[T5C]_[A6C]_[T7A]_F4.1_[A9T]_T4.1] | 9.07 nM
33 | UCUCUUUGUACUAUUUCUCUU (ssRNA) [Ic_S1_P4E.1_K4.1_C4.1_H4.1_A4.1_[T5C]_[A6T]_[T7A]_F4.1_[A9T]_T4.1] | 9.22 nM
34 | UCUCUUUGUACUUUCUCUCUU (ssRNA) [Ic_S1_P4E.1_K4.1_C4.1_H4.1_A4.1_[T5C]_[A6T]_F4.1_[A9C]_T4.1] | 39.6 nM
35 | UCUCUUUGUACCUCCUCUCUU (ssRNA) [Ic_S1_P4E.1_K4.1_C4.1_H4.1_A4.1_[T5C]_[A6C]_F4.1_[T8C]_[A9C]_T4.1] | 570 nM
36 | UCUCUUUGUACUUGGUCUCUU (ssRNA) [Ic_S1_P4E.1_K4.1_C4.1_H4.1_A4.1_[T5C]_[A6T]_F4.1_[T8G]_[A9G]_T4.1] | 623 nM
37 | UCUCUUUGUACUCUAUCUCUU (ssRNA) [Ic_S1_P4E.1_K4.1_C4.1_H4.1_A4.1_[T5C]_[A6T]_[T7C]_F4.1_T4.1] | 3.48 nM
38 | UCUCUUUGUGUAAAUCUCUU (ssRNA) [Ib_S1_P3E.1_K3.1_C3.1_H3.1_[A4G]_A3.1_F3.1_[T7A]_T3.1] | 202 nM
39 | UCUCUUUGUACUAAAUCUCUU (ssRNA) [Ic_S1_P4E.1_K4.1_C4.1_H4.1_A4.1_[T5C]_[A6T]_[T7A]_F4.1_[T8A]_T4.1] | 69.7 nM
40 | UCUCUUUGUACUUGAUCUCUU (ssRNA) [Ic_S1_P4E.1_K4.1_C4.1_H4.1_A4.1_[T5C]_[A6T]_F4.1_[T8G]_T4.1] | 465 nM

Row | Binder | Kd
41 | UCUCUUUGUACCUCGUCUCUU (ssRNA) [Ic_S1_P4E.1_K4.1_C4.1_H4.1_A4.1_[T5C]_[A6C]_F4.1_[T8C]_[A9G]_T4.1] | 575 nM
42 | UCUCUUUGUACUACAUCUCUU (ssRNA) [Ic_S1_P4E.1_K4.1_C4.1_H4.1_A4.1_[T5C]_[A6T]_[T7A]_F4.1_[T8C]_T4.1] | 140 nM
43 | UCUCUUUGUACAGCUUCUCUU (ssRNA) [Ic_S1_P4E.1_K4.1_C4.1_H4.1_A4.1_[T5C]_[T7G]_F4.1_[T8C]_[A9T]_T4.1] | 78.3 nM
44 | UCUCUUUGUACUCGCUCUCUU (ssRNA) [Ic_S1_P4E.1_K4.1_C4.1_H4.1_A4.1_[T5C]_[A6T]_[T7C]_F4.1_[T8G]_[A9C]_T4.1] | 972 nM
45 | UCUCUUUGUACUCCGUCUCUU (ssRNA) [Ic_S1_P4E.1_K4.1_C4.1_H4.1_A4.1_[T5C]_[A6T]_[T7C]_F4.1_[T8C]_[A9G]_T4.1] | 969 nM
46 | UCUCUUUGUACCUUGUCUCUU (ssRNA) [Ic_S1_P4E.1_K4.1_C4.1_H4.1_A4.1_[T5C]_[A6C]_F4.1_[A9G]_T4.1] | 27.3 nM
47 | UCUCUUUGUACCAUGUCUCUU (ssRNA) [Ic_S1_P4E.1_K4.1_C4.1_H4.1_A4.1_[T5C]_[A6C]_[T7A]_F4.1_[A9G]_T4.1] | 3.4 nM
48 | UCUCUUUGUACCUUUUCUCUU (ssRNA) [Ic_S1_P4E.1_K4.1_C4.1_H4.1_A4.1_[T5C]_[A6C]_F4.1_[A9T]_T4.1] | 34.8 nM
49 | UCUCUUUGUACUCUUUCUCUU (ssRNA) [Ic_S1_P4E.1_K4.1_C4.1_H4.1_A4.1_[T5C]_[A6T]_[T7C]_F4.1_[A9T]_T4.1] | 33.7 nM
50 | UCUCUUUGUACUUGCUCUCUU (ssRNA) [Ic_S1_P4E.1_K4.1_C4.1_H4.1_A4.1_[T5C]_[A6T]_F4.1_[T8G]_[A9C]_T4.1] | 414 nM
51 | UCUCUUUGUACUUAUUCUCUU (ssRNA) [Ic_S1_P4E.1_K4.1_C4.1_H4.1_A4.1_[T5C]_[A6T]_F4.1_[T8A]_[A9T]_T4.1] | 34.1 nM
52 | UCUCUUUGUACUAUCUCUCUU (ssRNA) [Ic_S1_P4E.1_K4.1_C4.1_H4.1_A4.1_[T5C]_[A6T]_[T7A]_F4.1_[A9C]_T4.1] | 13.8 nM
53 | UCUCUUUGUACUGGUUCUCUU (ssRNA) [Ic_S1_P4E.1_K4.1_C4.1_H4.1_A4.1_[T5C]_[A6T]_[T7G]_F4.1_[T8G]_[A9T]_T4.1] | 732 nM
54 | UCUCUUUGUACUUGUUCUCUU (ssRNA) [Ic_S1_P4E.1_K4.1_C4.1_H4.1_A4.1_[T5C]_[A6T]_F4.1_[T8G]_[A9T]_T4.1] | 51.9 nM
55 | UCUCUUUGUACCUAUUCUCUU (ssRNA) [Ic_S1_P4E.1_K4.1_C4.1_H4.1_A4.1_[T5C]_[A6C]_F4.1_[T8A]_[A9T]_T4.1] | 24.6 nM
56 | UCUCUUUGUACUGCAUCUCUU (ssRNA) [Ic_S1_P4E.1_K4.1_C4.1_H4.1_A4.1_[T5C]_[A6T]_[T7G]_F4.1_[T8C]_T4.1] | 668 nM
57 | UCUCUUUGUACUAGCUCUCUU (ssRNA) [Ic_S1_P4E.1_K4.1_C4.1_H4.1_A4.1_[T5C]_[A6T]_[T7A]_F4.1_[T8G]_[A9C]_T4.1] | 643 nM
58 | UCUCUUUGUACUCUGUCUCUU (ssRNA) [Ic_S1_P4E.1_K4.1_C4.1_H4.1_A4.1_[T5C]_[A6T]_[T7C]_F4.1_[A9G]_T4.1] | 30.5 nM
59 | UCUCUUUGUACUUCUUCUCUU (ssRNA) [Ic_S1_P4E.1_K4.1_C4.1_H4.1_A4.1_[T5C]_[A6T]_F4.1_[T8C]_[A9T]_T4.1] | 75.2 nM
